“Also recorded” adds a separate entry of the source.
Columns and labels:
[1] = in vivo; parameters: species or system nude mice; conditions: nude, mouse
Text: The lungs were removed from both mice. […] The harvested lungs were imaged by microPET again.

[2] = tested on: T24 lung metastases; conditions: mouse, in vivo
Procedure: (§1) The tumor-bearing animal model was established by injecting into the left flank of each nude mouse subcutaneously with human T24 cell suspension (2×10^6 cells in 100-μL of medium). The tumors were allowed to grow for 42 days prior to PET imaging. […] The microPET imaging studies were performed using the microPETR4 rodent scanner (Concorde Microsystems, Knoxville, Tenn.). The scanner provides a 10×8 cm field of view, and the scanner is currently capable of an axial and transaxial resolution of 2 mm, with an absolute sensitivity of 900 counts per second per μCi. Images were reconstructed using Fourier rebinning followed by two-dimensional filtered back projection. […] At 15 min, 60 min, and 4 hr post injection (p.i.), the mice were anesthetized and immobilized in a supine position on a support bed with attached anesthetic gas nose cones for data collection. The imaging collection time was 10 min.
(§2) After the 4-hr microPET imaging, the animals were sacrificed. The lungs were removed from both mice. […] The harvested lungs were imaged by microPET again.

[3] = in vivo; parameters: species or system nude mice; conditions: nude, mouse; remark: listed apart in the source
Procedure: Peptides may be radiolabeled with ^18F or ^64Cu for in vitro and in vivo PET imaging evaluations. The peptides may be prepared using standard F-moc chemistry on an automated peptide synthesizer. Pharmacokinetic parameters of ^64Cu-labeled R11, the lead peptide, were evaluated by the inventors in preliminary experiments by using a two-compartment model. […] However, due to the unknown mechanism of the peptide specificity, it is reasonable to assume that a longer circulation time in the blood is preferable to enhance the image contrast. […]
The tissue distribution of the radiolabeled peptides or peptide conjugates may be evaluated in normal nude mice. […] At selected time points post-injection, animals may be sacrificed, and organs of interest removed, weighed, and counted. The percent injected dose per gram (% ID/g) and percent injected dose per organ (% ID/organ) can be calculated by comparison to a weighed, counted, standard. […] Specifically, blood (10-20-μL) can be drawn from the retroorbital sinus of the animals at 5-min, 10-min, 20-min, and 40-min, and counted on a gamma counter.
The pharmacokinetics of the ^64Cu-labeled peptide was also evaluated by using a two-compartment model. […]

[4] = biodistribution of ^64Cu-DOTA-R11 in normal nude mice; assay type: in vivo; conditions: 5-10 μCi; % ID/g
Procedure: FIG. 6—Biodistribution data of ^64Cu-DOTA-R11 in normal nude mice (n=4). Data are presented as % ID/g±s.d. SV: seminal vesicle; CG: coagulation gland.
The injected dose of ^64Cu-DOTA-R11 in the biodistribution studies was in range of 5-10 μCi. The animals were sacrificed at specific time points (n=4 at each time point). Organs of interest were removed, weighed, and counted. Standards were prepared and counted along with the samples to calculate the percent injected dose per gram tissue (% ID/g).
In order to explore the application of R11 for the detection of bladder cancer metastasis via PET, the inventors conjugated this peptide with a bifunctional chelator, DOTA (1,4,7,10-tetraazacyclododecane-1,4,7,10-tetraacetic acid), so that R11 could be radiolabeled with ^64Cu. […] The radiolabeled peptide was purified via a C-18 cartridge (Millipore) to have >95% radiochemical purity as determined by radio-TLC and HPLC prior to the biodistribution and PET imaging studies. […] Organs of interest were removed, weighed, and counted. Standards were prepared and counted along with the samples to calculate the percent injected dose per gram tissue (% ID/g). […] In addition, the pharmacokinetics of the ^64Cu-labeled peptide was also evaluated by using a two-compartment model.

[5] = in vivo; conditions: nude, mouse, iv, uptake of control lungs
Procedure: as §1, §2

Structure (SMILES): N=C(N)NCCCC(NC(=O)C(CCCNC(=N)N)NC(=O)C(CCCNC(=N)N)NC(=O)C(CCCNC(=N)N)NC(=O)C(CCCNC(=N)N)NC(=O)C(CCCNC(=N)N)NC(=O)C(CCCNC(=N)N)NC(=O)C(CCCNC(=N)N)NC(=O)C(CCCNC(=N)N)NC(=O)C(CCCNC(=N)N)NC(=O)C(CCCNC(=N)N)NC(=O)CNC(=O)CN1CCN(CC(=O)O)CCN(CC(=O)O)CCN(CC(=O)O)CC1)C(=O)O (stereo not shown) [^64Cu-DOTA-R11, DOTA-G-RRRRRRRRRRR, metal not drawn]
- tissue to tissue ratio [1]: > 8
- ex vivo microPET and autoradiography of lungs with T24 metastases [2]: elevated uptake
- half-life ([3]; elimination half life from other organs (the secondary compartment)): 17.2 h
- half-life ([3]; half-life in the blood (the primary compartment)): ~0.178 h
- accumulation in prostate and bladder [4]: strong tendency to accumulate in prostate and bladder
- uptake in other organs (blood, lungs, liver, spleen, kidneys, muscle) [4]: remarkably low uptake in other organs; also recorded: remarkably low uptake by other organs
- tissue uptake at 0.25 h [5]: < 4 %ID/g
